The source of these data is publication PMC6284025.

The target in assay [1] is FcγRII (CD32) on human CD4+ T cells (human (endogenous in CD4+ T cells of blood donors)) (UniProt P12318).
The target is the same in assay [2]. Put plainly: flow cytometry on cells; activated purified CD4+ T cells incubated with aIgG (100 μg/ml) for 2 h at 37°C, washed three times, stained with biotinylated anti-human IgG Fc and streptavidin PerCP; percent of aIgG+CD4+ T cells.

UniProt P12318, sequence (P12318 34-317): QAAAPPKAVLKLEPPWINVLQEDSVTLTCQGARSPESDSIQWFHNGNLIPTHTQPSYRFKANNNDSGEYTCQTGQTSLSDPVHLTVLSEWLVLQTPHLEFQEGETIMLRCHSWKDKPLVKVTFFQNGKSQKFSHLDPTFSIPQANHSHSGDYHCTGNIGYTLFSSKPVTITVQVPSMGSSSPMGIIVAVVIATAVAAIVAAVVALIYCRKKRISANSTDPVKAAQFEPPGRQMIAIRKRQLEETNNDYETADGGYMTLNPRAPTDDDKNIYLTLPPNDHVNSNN

For the substance “Human IgG (heat-aggregated IgG, used as a model of immune complexes; or immobilised on plastic) (ligand)”, in assay [1], the IFN-γ in the supernatant (ELISA) after cIgG, then suboptimal PHA for 5 d was found to be 4950 pg/mL; the IL-5 in the supernatant (ELISA) after cIgG, then suboptimal PHA for 5 d came out at 77.9 pg/mL; the IL-10 in the supernatant (ELISA) after cIgG, then suboptimal PHA for 5 d amounted to 143 pg/mL; the TNF-α in the supernatant (ELISA) after cIgG, then suboptimal PHA for 5 d is 59.1 pg/mL. The percent of aIgG+CD4+ T cells in assay [2] came out at 14.1%.
